Assay results reported in publication PMC10833452 (2023).
Where two headings read alike, the source gives them in different places.

B1: 8H12 monoclonal antibody (mouse IgG) (antibody, V domains shown)
VH: EVKLEESGGGLVQPGGSMKLSCAASGFTFSDAWMDWVRQSPEKGLEWVAQIRRKANNHATYYAESVKGRFTISRDDSKSSVYLQMNSLRAEDTGIYYCIRGMTYAMDFWGQGTSVTVSS
VL: DIVMTQFQKFMSTSVGDRVSITCKASQNVRTAVAWYQQKPGQSPKAMIYLASNRHRGVPDRFTGSGCGTDFTLTISNVQCEDLADYFCLQHRNYPLTFGGGTKLEIK
B2: 3E2 monoclonal antibody (mouse IgG) (antibody, V domains shown)
VH: EVMLVESGGGVVKPGGSLKLSCAASGFSFSTYAMSWIRQTPEKSLEWVAAISSGGTNTYYPGSVKGRFTISRDKAMNTLYLQLSSLRSEDTAMYYCVRHSGNYVDSVMDYWGQGTSVTVSS
VL: QIVLTQSPAIMSASLGEEITLTCSVSSSVSDMHWYQQKSGTSPKVFIYSTSNLASGVPSRFSGSGSGTFYSLTISSVEAEDAAYYYCHQWSSWTFGGGTKLEIK

Columns and labels:
Test in all cases: SPR
[1] = target: WT-RBD
[2] = target: WT-RBD; remark: listed apart in the source
[3] = target: WT-RBD; remark: listed apart in the source

Row | Binder | Kd [1] [nM] | Kd [2] [nM] | Kd [3] [nM]
1 | B1 | 0.398 | 0.4 | 
2 | B2 |  | 0.004 | 0.00354
